Here are results for nine molecules from patent US12723078 (University of Texas, dated 2026).

The chains are these.
B1: mAb of B cell clone 58 (supernatant) (antibody, V domains shown)
VH: EQSLEESGGDLVKPGASLTLTCTASAFSFSSSSWICWVRQAPGKGLEWIACIYGGSVGTTYYASWAKGRFTISKPSSTTVTLQMTSLAAADTATYFCATNTDSSRSYYNLWGPGTLVTISS
VL: ELVLTQTPSSVEVAVGGAVTIKCQASHIITNYLAWYQQRPGQPPKLLIYDASKLASGVPSRFKGSGSGTEFTLTISDLECADAATYYCQNYLYFSSGDWNVFGGGTEVVVK
notes: rabbit; also called B1-#58-1
B2: mAb of B cell clone 83 (supernatant) (antibody, V domains shown)
VH: B1 VH with E5K, G58A, S64T, A88P, I119V
VL: B1 VL with V3D
notes: rabbit; also called B1-#83
B3: mAb of B cell clone 38 (supernatant) (antibody, V domains shown)
VH: EQSVEESEGGLVQPEGSLTLTCTASGFSFSNDYWICWVRQAPGKGLEWIGCGHIGSFRTTYYASWAKGRFSISKTSSTTVTLQMTSLTGADTATYFCARSPYDDGYGGFTFNLWGPGTLVTISS
VL: ELDMTQTPSSVEAAVGGTVTVKCQVSQSIGNAIAWYQQKPGQPPKLLIYKASTLASGVPSRFKGSGSGTEFTLTISDLECADAATYYCQNYYYSNTNSFGGGTEVVVK
notes: rabbit; also called B1-#38
B4: mAb of B cell clone 79 (supernatant) (antibody, V domains shown)
VH: QSLEESGGGLVQPEGSLTLTCTVSGFSFSSSWYMCWVRQAPGKGLEWIACIYTLRSGAAHYANWAKGRFTISKASSTTVTLQMNSLTAADTATYFCARATYAYAGAGDLWGPGTLVTVSS
VL: ELVLTQTPSSVSAAVGGTVTINCQASEDIDRYLAWYQQKPGQRPKLLIVDASTLPSGVPSRFKGSGSGTEFTLTISDLECADGATYYCQSYDNSDNNGFGGGTEVVVK
notes: rabbit; also called B1-#79
B5: mAb of B cell clone 56 (supernatant) (antibody, V domains shown)
VH: QSLEESGGDLVQPEGSLTLTCTASGFSFSINLYMCWVRQAPGKGLEWIACIYGNNNANTYYTTWAKGRFTISKTSPTTVTLQMTSLTGADTATYFCARDTAAYYAFSLWGPGTLVTISS
VL: ELVMTQTPSSSSAAVGGTVTIKCQASQSIGSRFAWYQQKPGQRPKLLIYEASKLPSGVPSRFKGSGSGTEFTLTISDLECADAAIYYCQCTYYESSSGGGFGGGTEVVVK
notes: rabbit; also called B1-#56
B6: mAb of B cell clone 76 (supernatant) (antibody, V domains shown)
VH: EQSVEESGGGLVQPEGSLTLTCTASGFSFSGSCDMSWVRQAPGKGLEWIACIVLSNGNTYYAGWAQGRFTISKISSTTVTLEMTSLTAADTATYFCARERYPGAFSSGLDLWGQGTLVTVSS
VL: ELDLTQTPSPVSAAVGGTVTINCQASQIVANGRLAWYQQKPGQPPKLLIYATSTLASGVPSRFKGSGSGTQFTLTINGVQCDDAATYYCQGAYSSGDVRTFGGGTEVVVK
notes: rabbit; also called B1-#76
B7: mAb of B cell clone 41 (supernatant) (antibody, V domains shown)
VH: QSVKESGGDLVKPGASLTLTCTASGFSFSSSYWICWVRQAPGKGLEWIACIYAGSSGSTYYASWAKGRFTISKTSSTTVTLQMTSLTAADTATYFCARSTSGSYGAGLGLWGPGTLVTISS
VL: ELDMTQTASPVSGAVGGTVTIKCQASQNIYNNIGWYQQKPGQPPNLLIYGPSYLASGVPSRFKGSRSGTEYTLTISDLECADAATYYCQSDDWMSISPDIVFGGGTEVEIK
notes: rabbit; also called B1-#41-1
B8: mAb of B cell clone 72 (supernatant) (antibody, V domains shown)
VH: QSVKESGGGLVQPEGSLALTCKASGIDLSNYWYMCWVRQAPGKGLEWIGCVATDSSRTHYATWAKGRFTVSKTSSTTVTLQMTSLTAADTATYFCARGSGASTNGVWWVMGDGMDLWGPGTLVTISS
VL: ELVMTQTPSSVSAAVGGTVTIKCQASPSISTYLSWYQQKPGQPPKRLINRASTLASGVPPRFKGSGAGTQFTLTISDLECADAATYYCQNNYHSGSSNGGGVAFGGGTEVEIK
notes: rabbit; also called B1-#72-1
B9: mAb of B cell clone 74 (supernatant) (antibody, V domains shown)
VH: QSLEESGGGLVKPGASLTLTCTASGFSLNRYYMCWVRQAPGKGLEWIGCIYSGSGSTYYASWAKGRFTISKTSSTTVTLQMTSLPAADTATYFCGRLDYRVIYAFNLWGPGTLVTISS
VL: ELVLTQTPASVSAAVGGTVTINCQASQSIGSGNLAWYQQKPGQPPKLLIYLASTLASGVPPRFKGSGSGTEFTLTISDLECDDAATYYCQYTYYGTTYDNAFGGGTELEIK
notes: rabbit; also called B1-#74

Where a chain is given by its changes, count along the chain named.

The assay deals with T1, human LILRB1 recombinant protein (human, UniProt Q8NHL6 24-461).
T1 construct: The ELISA method says only 'LILRB1 recombinant proteins' coated on plates; also called leukocyte immunoglobulin-like receptor subfamily B member 1
T1 sequence (Q8NHL6 24-461 limits assumed): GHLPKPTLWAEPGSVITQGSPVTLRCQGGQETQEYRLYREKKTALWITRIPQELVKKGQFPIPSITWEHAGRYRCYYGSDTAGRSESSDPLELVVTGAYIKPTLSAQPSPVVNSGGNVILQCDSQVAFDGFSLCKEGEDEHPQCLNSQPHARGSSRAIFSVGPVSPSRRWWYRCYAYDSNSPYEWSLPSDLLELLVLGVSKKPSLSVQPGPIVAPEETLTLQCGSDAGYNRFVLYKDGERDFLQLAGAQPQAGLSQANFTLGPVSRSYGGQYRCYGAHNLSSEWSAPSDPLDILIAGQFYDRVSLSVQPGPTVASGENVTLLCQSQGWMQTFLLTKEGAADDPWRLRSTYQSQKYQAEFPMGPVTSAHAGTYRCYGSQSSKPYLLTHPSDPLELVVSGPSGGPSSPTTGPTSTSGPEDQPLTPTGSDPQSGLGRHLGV
Description: ELISA, B cell supernatant.
For the molecule B1, the OD450 was found to be 2.26 OD450.

As for B2, the OD450 is 2.32 OD450.

Regarding B3, the OD450 is 2.32 OD450.

As to B4, the OD450 worked out at 2.32 OD450.

As to B5, the OD450 came to 2.09 OD450.

B6: the OD450 was found to be 2.14 OD450.

On to B7, for which the OD450 came to 2.26 OD450.

In the case of B8, the OD450 worked out at 2.25 OD450.

As for B9, the OD450 came out at 2.4 OD450.
